Measured values taken from doi:10.1101/2020.05.11.089193 (bioRxiv, 2020).
Like-named read-outs stand apart in the source and are kept apart here.

Key:
[1] = biological target: the molecule itself; test: cryo-EM structure
[2] = biological target: the molecule itself; test: cryo-EM structure; remark: listed apart in the source

B1: Flavobacterium johnsoniae GldL (natural protein, UniProt Q5EGM4 1-215, looked up)
chain: MALLSKKVMNFAYGMGAAVVIVGALFKITHFEIGPLTGTVMLSIGLLTEALIFALSAFEPVEDELDWTLVYPELANGQARKKEAKAETATDAQGLLSQKLDAMLKEAKVDGELMASLGNSIKNFEGAAKAISPTVDSIAGQKKYAEEMSMAAAQMESLNSLYKVQLESASRNAQANSEIAENAAKLKEQMASMTANIASLNSVYGGMLSAMSNKG
In the case of B1, the “stoichiometry N” value [1] is reported as 5.

B2: Porphyromonas gingivalis ATCC 33277 PorM (natural protein, UniProt B2RLE8 1-516, looked up)
chain: MAVGSNGNANRQKMINLMYLVFIAMMALNVSSEVLDGFDKVDKSLTSSIDGSDKRNNLVLSELNTAYRTNPEKVKVWYERSLVLQKEADSLCTFIDDLKLAIARESDGKDAKVNDIRRKDNLDASSVVMLNPINGKGSTLRKEVDKFRELVATLMTDKAKLKLIEQALNTESGTKGKSWESSLFENMPTVAAITLLTKLQSDVRYAQGEVLADLVKSVDVGDYRVNSITAQVIPQSQIVMSGDTYKANIVLSSVDTTQRPDVFVNGKLLSPENMGLFTATAGAPGTYPVKGYIEMMGNDGVKIRRDFESEYFVTEPMASVAPTMMNVLYAGIDNPINIAVPGVAQQNVSATINNGTLTRRGNLWIARPTKVGSEAIISVTAQSGGRTIQMAKTTLRVRALPDPLPYIEYKDVQGNTKRFKGGRLGKREILAAGGIKAALDDDLLEVNYTVVKFQLVFYDSMGNSIPEVSDGASFSERQKRQIQNLGKGKRFYVTEVIARGPDGIERKIPAIEVIVN
B2 was tested, and the “stoichiometry N” value [2] was 2.

B3: Flavobacterium johnsoniae GldM C-terminally truncated after the first folded periplasmic domain (first 225 amino acids) (domain or fragment, UniProt Q5EGM3 1-225, looked up)
chain: MAGGKLTPRQKMINLMYLVFIAMLAMNVSKEVISAFGLMNEKFEAANTSSVTTNESLLTSLDQKAAEAKGEFAKAAETAHKVQAASKEFYDYIGTLKTQAVKGFEVDKETGKMPYEAMDRGDNIDDWFTGDGYTKKGNEIIAKIEKYKSDIKAALGTDKKYAGIISEVEKKFDVSDVKNKEGIKEKYLAYHFKGFPAIASAAKLSAWQNDVKKTEADVYNSALGK
In the case of B3, the “stoichiometry N” value [1] is reported as 2.
